Assay results as given in paper doi:10.1101/2021.12.20.473529 (bioRxiv, 2021).
Positions count from the first letter of the chain named. Names may count otherwise.

B1: HNF-1A DD-DBD (HNF-1A 1-279), wild type (domain or fragment, human, UniProt P20823 1-279, looked up)
chain: MVSKLSQLQTELLAALLESGLSKEALIQALGEPGPYLLAGEGPLDKGESCGGGRGELAELPNGLGETRGSEDETDDDGEDFTPPILKELENLSPEEAAHQKAVVETLLQEDPWRVAKMVKSYLQQHNIPQREVVDTTGLNQSHLSQHLNKGTPMKTQKRAALYTWYVRKQREVAQQFTHAGQGGLIEEPTGDELPTKKGRRNRFKWGPASQQILFQAYERQKNPSKEERETLVEECNRAECIQRGVSPSQAQGLGSNLVTEVRVYNWFANRRKEEAFRH
B2: HNF-1A DD-DBD/R263C (domain or fragment, human, UniProt P20823 1-279, looked up)
chain: B1 chain with R263C
B3: HNF-1A DD-DBD/N266S (domain or fragment, human, UniProt P20823 1-279, looked up)
chain: B1 chain with N266S

Target: the molecule itself
Assay: SEC-MALS

| Protein | stoichiometry N |
| --- | --- |
| B1 | 2 |
| B2 | 2 |
| B3 | 2 |
